Earlier results as cited in publication PMC8174103.

Molecular target: EGFR (Homo sapiens) (UniProt P00533)

Kd: 2 nM
Substance: EGF (from UniProt P01133)
